Measurements taken from US20050267025A1, “Compositions and methods for treatment of infectious and inflammatory diseases” (priority 2002, published 2005).

System: human monocytes
Type: cell-based

B1: Rv0577: ~32 kDa IL-10 producing protein encoded by Rv0577 (cfp32), SEQ ID NO: 2 (protein, listed as Mycobacterium tuberculosis)
chain: MPKRSEYRQGTPNWVDLQTTDQSAAKKFYTSLFGWGYDDNPVPGGGGVYSMATLNGEAVAAIAPMPPGAPEGMPPIWNTYIAVDDVDAVVDKVVPGGGQVMMPAFDIGDAGRMSFITDPTGAAVGLWQANRHIGATLVNETGTLIWNELLTDKPDLALAFYEAVVGLTHSSMEIAAGQNYRVLKAGDAEVGGCMEPPMPGVPNHWHVYFAVDDADATAAKAAAAGGQVIAEPADIPSVGRFAVLSDPQGAIFSVLKPAPQQ
In the case of B1, the “IL-10 inducing activity of Mtb attributed to Rv0577” value is reported as ~60%.
